Data from US20060153775A1 (BRACCO INTERNATIONAL B V, published 2006).
Non-standard residues stand in square brackets, D forms with d. No end group written: not given here. AEEA = NCCOCCOCC(=O)O

T1: NP-1/Fc (R&D Systems)
T1 chain: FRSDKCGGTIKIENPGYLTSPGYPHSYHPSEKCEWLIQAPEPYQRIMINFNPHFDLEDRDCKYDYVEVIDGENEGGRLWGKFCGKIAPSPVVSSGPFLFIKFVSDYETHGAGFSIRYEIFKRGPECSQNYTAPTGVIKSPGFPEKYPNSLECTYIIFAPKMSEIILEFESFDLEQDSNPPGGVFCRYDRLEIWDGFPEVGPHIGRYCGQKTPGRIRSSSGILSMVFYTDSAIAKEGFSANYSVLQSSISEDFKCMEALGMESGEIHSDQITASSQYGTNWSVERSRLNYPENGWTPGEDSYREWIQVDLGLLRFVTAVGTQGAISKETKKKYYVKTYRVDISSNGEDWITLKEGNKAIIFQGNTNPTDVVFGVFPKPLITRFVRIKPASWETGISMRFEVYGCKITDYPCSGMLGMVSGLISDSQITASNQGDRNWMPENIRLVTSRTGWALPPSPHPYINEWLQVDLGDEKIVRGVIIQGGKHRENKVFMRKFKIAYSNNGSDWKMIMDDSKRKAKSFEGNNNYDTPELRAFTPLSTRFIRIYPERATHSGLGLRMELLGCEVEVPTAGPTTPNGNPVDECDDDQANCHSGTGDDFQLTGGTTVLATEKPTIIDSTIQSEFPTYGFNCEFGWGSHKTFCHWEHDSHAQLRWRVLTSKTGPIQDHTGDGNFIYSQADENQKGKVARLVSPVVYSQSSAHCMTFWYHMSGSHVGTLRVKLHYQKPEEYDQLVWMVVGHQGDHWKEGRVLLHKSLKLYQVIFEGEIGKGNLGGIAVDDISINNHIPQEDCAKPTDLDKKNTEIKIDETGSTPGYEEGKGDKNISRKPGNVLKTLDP

B1: Qdots conjugated with tetrameric TKPPR (D50) (peptide)
peptide: [AEEA]TKPPR
modifications: also: four TKPPR on a branched scaffold, thiol coupled through LC-SMCC to quantum dots
notes: Many D50 molecules on each 655 nm quantum dot; also called D50-conjugated Qdots; branched tetrameric TKPPR-conjugated Qdots
B2: TKPPR tetramer D41, OG-(TKPPR)4 (peptide)
peptide: [AEEA]TKPPR
modifications: also: tetramer of four TKPPR on a branched non-peptide scaffold, one Oregon Green label on scaffold
notes: also called tetrameric TKPPR; fluorescently-labeled TKPPR tetramer
B3: Tuftsin (TKPR) (peptide)
peptide: TKPR
notes: Naturally occurring tetrapeptide, used as free peptide; also called free tuftsin
B4: TKPPR tetramer D43 on a lysine core with trioxa Oregon Green at the C-terminal (peptide)
peptide: TKPPR
modifications: also: tetramer: C-terminal Arg of each TKPPR linked to amino groups of branched Lys-Lys(Lys)-Gly core, Gly carries TTDA-Oregon Green
notes: The lysine core (three Lys and one Gly) is not written as a chain of its own; also called Reverse Tetramer; compound 16
B5: VEGF165 (ligand, UniProt P15692-4 27-191, looked up)
chain: APMAEGGGQNHHEVVKFMDVYQRSYCHPIETLVDIFQEYPDEIEYIFKPSCVPLMRCGGCCNDEGLECVPTEESNITMQIMRIKPHQGQHIGEMSFLQHNKCECRPKKDRARQENPCGPCSERRKHLFVQDPQTCKCSCKNTDSRCKARQLELNERTCRCDKPRR
modifications: 125I label on the radioligand form (Amersham IM274)
notes: mature; The labelled and the unlabelled protein are kept as one molecule; also called unlabeled VEGF
B6: Qdots conjugated with monomeric TKPPR (D51) (peptide)
peptide: TKPPR
modifications: also: further groups not given here
notes: The full structure of D51 ([M+H] 1004.5) stands only in a drawing; also called D51-conjugated Qdots; linear monomeric TKPPR-conjugated Qdots

Experiments:
NP-1/Fc (R&D Systems) [1] = target: T2, NP-1/Fc (R&D Systems); test: competition with 250 pM 125I-VEGF165 for plate-coated NP-1/Fc
T2 construct: Bought reagent; also called Neuropilin-1/Fc; Npn-1
Protocol: (§1) Competitive binding assays with microtiter plates coated with NP-1/Fc (R&D systems) were performed using ¹²⁵I-VEGF₁₆₅ as radioligand (Amersham Pharmacia Biotech Cat. No. IM274, Specific Activity: 1000-2500 Ci/mmol). An assay buffer consisting of Hank's Balanced Salt Solution (HBSS), 25 mM HEPES, and 0.1% BSA, pH 7.4 was used, and for all experiments, Assay volume per well was 75 μL. Plates (Nunc MaxiSorp white opaque Microtiter plate [C-bottom, 437796]) were coated by incubating the wells with 75 μL of a solution containing 3 μg/mL NP-1/Fc in D-PBS/0.1% NaAzide overnight at 4° C. after covering with sealing tape (Dynex, VWR Cat. No. 62402-931). The next day all wells, even control wells lacking NP-1/Fc, were blocked 2 hrs with blocking buffer (1% BSA in D-PBS with 0.05% v/v Tween-20) then washed 4× with PBST (D-PBS/0.05% v/v Tween-20) before starting the assay. All points were derived from triplicate wells, and for each set of replicates in NP-1/Fc-coated wells, a companion set in the absence of the receptor was included. […] Solutions were added to 1.2 mL polypropylene tubes conforming to the microtiter format (Costar Cat. No. 29442-602), and transferred from these tubes to microtiter wells, without further dilution, using a multichannel pipetter. After addition of the appropriate solutions, microtiter plates were incubated at 4° C. for 2 hours. Following the incubation, plates were handwashed 5 times with D-PBS containing 0.05% Tween-20 and 0.1% BSA. The plates were blotted dry and 25 μL deionized water and 100 μL scintillation fluid (Optiphase SuperMix, Wallac) were added to each well. Plates were agitated using a Plate Shaker (Hyperion, Cat. No. 4030-100F) for 3-5 minutes and were then counted using a Microplate Scintillation Counter (Wallac Microbeta Trilux). A set of serially diluted ¹²⁵I-VEGF₁₆₅ standard wells ranging from 200 to 0.04 pM were included with each experiment to aid in quantification of the amount of radiolabel bound. VEGF₁₆₅ (Cat. No. 100-20) was obtained from Peprotech.

[2] = target: T3, neuropilin-1 on HUVEC (neuropilin-1-expressing cells) (human, UniProt O14786 22-923); test: Qdot binding to HUVEC, fluorescence microscopy
T3 construct: whole, on cells; The assay was done on whole HUVEC; also called NP-1; endothelial cells
T3 sequence (O14786 22-923): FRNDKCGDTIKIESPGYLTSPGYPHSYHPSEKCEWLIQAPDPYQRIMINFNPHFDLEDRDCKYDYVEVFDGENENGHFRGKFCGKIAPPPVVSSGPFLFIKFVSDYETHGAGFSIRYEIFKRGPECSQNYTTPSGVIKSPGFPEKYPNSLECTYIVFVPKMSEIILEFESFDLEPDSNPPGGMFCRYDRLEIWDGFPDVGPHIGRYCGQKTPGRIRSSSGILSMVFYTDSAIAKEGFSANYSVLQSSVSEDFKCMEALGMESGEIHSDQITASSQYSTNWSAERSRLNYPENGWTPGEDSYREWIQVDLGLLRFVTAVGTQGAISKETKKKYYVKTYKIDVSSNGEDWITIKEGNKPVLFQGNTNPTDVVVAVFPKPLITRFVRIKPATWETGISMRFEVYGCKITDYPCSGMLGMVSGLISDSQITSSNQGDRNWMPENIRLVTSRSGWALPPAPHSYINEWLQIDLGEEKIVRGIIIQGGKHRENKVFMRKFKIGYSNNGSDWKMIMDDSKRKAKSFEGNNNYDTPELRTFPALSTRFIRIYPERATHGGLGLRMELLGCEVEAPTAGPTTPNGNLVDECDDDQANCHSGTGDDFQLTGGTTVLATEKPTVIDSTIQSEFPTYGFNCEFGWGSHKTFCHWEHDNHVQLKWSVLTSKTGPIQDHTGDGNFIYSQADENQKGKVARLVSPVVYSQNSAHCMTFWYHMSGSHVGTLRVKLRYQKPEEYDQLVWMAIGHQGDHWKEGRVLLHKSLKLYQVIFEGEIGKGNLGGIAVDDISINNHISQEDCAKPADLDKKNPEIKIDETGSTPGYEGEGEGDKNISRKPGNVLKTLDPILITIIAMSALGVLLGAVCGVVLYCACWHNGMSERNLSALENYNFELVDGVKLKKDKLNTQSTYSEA
Protocol: Human umbilical vein endothelial cells (HUVEC) were grown to near confluency on collagen 1-coated 8-well chamber slides (BD Biosciences) in EGM-2 medium (Cambrex). […] The slides were incubated 45 min at 37° C. in a tissue culture incubator with 5% CO₂ then incubated an additional 45 min at room temperature in ambient air. After washing five times with D-PBS (30 sec per wash), the cells were fixed with ice-cold acetone for 2 min, rinsed again with D-PBS, and mounted with SlowFade+Dapi (Molecular Probes). The slide wells were examined with a fluorescence microscope equipped with a filter set optimized for 655 nm quantum dots (Omega).

NP-1/Fc (R&D Systems) [3] = target: T2, NP-1/Fc (R&D Systems); test: fluorescence polarization, OG-labeled ligand (5-20 nM) titrated with NP-1/Fc, 37 C
Protocol: (§2) The ability of various compositions comprising TKPPR monomers or multimers to bind to NP-1/Fc and KDR-Fc was evaluated using FP. […] FP values (mP) for each substrate was measured by titrating the ligand (5-20 nM) with receptor protein using a Jolley Research and Consulting FPM-1 fluorescence Polarization analyzer. In each of these experiments the observed polarization values were plotted against receptor concentration. The mP values for 100% binding of tracer labeled ligand to receptor protein was calculated using the software provided by the vendor.

NP-1/Fc (R&D Systems) [4] = target: T2, NP-1/Fc (R&D Systems); test: fluorescence polarization, competition of OG-labeled D41 binding to NP-1/Fc
Protocol: as §2

NP-1/Fc (R&D Systems) [5] = target: T1, NP-1/Fc (R&D Systems); test: competition with 250 pM 125I-VEGF165 for plate-coated NP-1/Fc
Protocol: as §1

NP-1/Fc (R&D Systems) [6] = target: T1, NP-1/Fc (R&D Systems); test: fluorescence polarization, competition of OG-labeled D41 binding to NP-1/Fc
Protocol: as §2

[7] = target: T4, soluble human KDR/Fc chimera (R&D Systems Inc.) (human, UniProt P35968 20-764); test: competition with 125I-VEGF165 for plate-coated KDR-Fc
T4 construct: Bought reagent; Fc part of the bought chimera not given, not described
T4 sequence (P35968 20-764, change not shown): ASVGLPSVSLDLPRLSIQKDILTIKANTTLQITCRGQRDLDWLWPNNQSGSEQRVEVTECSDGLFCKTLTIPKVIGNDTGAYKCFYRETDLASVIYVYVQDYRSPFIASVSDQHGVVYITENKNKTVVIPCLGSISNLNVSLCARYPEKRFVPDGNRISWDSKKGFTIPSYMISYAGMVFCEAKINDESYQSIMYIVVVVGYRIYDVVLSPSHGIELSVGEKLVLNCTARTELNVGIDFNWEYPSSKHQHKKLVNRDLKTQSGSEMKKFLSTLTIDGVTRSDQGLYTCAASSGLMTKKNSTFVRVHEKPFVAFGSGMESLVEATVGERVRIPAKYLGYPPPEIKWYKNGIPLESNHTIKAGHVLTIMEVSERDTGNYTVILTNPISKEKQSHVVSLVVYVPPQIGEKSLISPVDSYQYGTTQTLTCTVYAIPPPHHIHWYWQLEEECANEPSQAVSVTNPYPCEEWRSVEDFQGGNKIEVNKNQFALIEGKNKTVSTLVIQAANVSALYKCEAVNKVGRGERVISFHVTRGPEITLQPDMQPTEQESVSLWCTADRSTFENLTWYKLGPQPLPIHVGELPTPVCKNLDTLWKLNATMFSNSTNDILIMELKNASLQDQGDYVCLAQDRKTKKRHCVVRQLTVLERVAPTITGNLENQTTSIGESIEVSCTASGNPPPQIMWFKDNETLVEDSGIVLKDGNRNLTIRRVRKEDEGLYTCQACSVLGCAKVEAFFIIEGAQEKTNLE

| Binder | IC50 (NP-1/Fc (R&D Systems) [1]) [µM] | IC50 (NP-1/Fc (R&D Systems) [5]) [µM] | also measured |
| --- | --- | --- | --- |
| [AEEA]TKPPR (also: dimer on branched bis-acid scaffold carrying one Oregon Green) [TKPPR dimer D40, OG-(TKPPR)2] | 3 |  |  |
| B1 |  |  | binding result [2]: binds |
| B2 | 0.13 |  | Kd (NP-1/Fc (R&D Systems) [3]): 0.025 to 0.05 µM |
| TKPPR (also called D45; TKPPR-OH) [TKPPR (L-threonyl-L-lysyl-L-prolyl-L-prolyl-L-arginine)] | 43 |  | IC50 (NP-1/Fc (R&D Systems) [4]): 80 µM |
| B3 |  | 280 |  |
| B4 | 8 |  |  |
| B5 |  | 0.0005 | IC50 (NP-1/Fc (R&D Systems) [6]): 0.2 µM |
| {Oregon Green (5-isomer)}-GTKPPR-OH (also called D44; OG-TKPPR) [Oregon Green (5-isomer)-GTKPPR-OH] |  | 30 | binding result [7]: no binding |
| B6 |  |  | binding result [2]: binds |
